From US20240287138A1 (Merck Sharp & Dohme, published 2024)
Bridge positions count the residues as written; N and C are the ends. Square brackets hold non-standard residues; d marks the D form. Trp(βS-Me,7-OMe) = COc1cccc2c([C@H](C)[C@H](N)C(=O)O)c[nH]c12; Phe(2-F,4-COOH) = N[C@@H](Cc1ccc(C(=O)O)cc1F)C(=O)O; Trp(7-CN) = N#Cc1cccc2c(C[C@H](N)C(=O)O)c[nH]c12; Trp(7-Cl) = N[C@@H](Cc1c[nH]c2c(Cl)cccc12)C(=O)O; Phe(4-CONH2) = NC(=O)c1ccc(C[C@H](N)C(=O)O)cc1; Phe(4-COOH) = N[C@@H](Cc1ccc(C(=O)O)cc1)C(=O)O; Trp(7-aza) = N[C@@H](Cc1c[nH]c2ncccc12)C(=O)O; dPro(trans-4-F) = O=C(O)[C@H]1C[C@H](F)CN1; αMeW = C[C@](N)(Cc1c[nH]c2ccccc12)C(=O)O; Pip(4-aza) = O=C(O)[C@@H]1CNCCN1; 4Pal = N[C@@H](Cc1ccncc1)C(=O)O; NMeE = CN[C@@H](CCC(=O)O)C(=O)O; dNMeE = CN[C@H](CCC(=O)O)C(=O)O; Pipt5OH = not defined here; NMeS = CN[C@@H](CO)C(=O)O; αMeS = C[C@](N)(CO)C(=O)O; Nle = CCCC[C@H](N)C(=O)O; Pip2c = not defined here; SBrPh = not defined here; TZAla = not defined here; Dab = NCC[C@H](N)C(=O)O; Sar = CNCC(=O)O

T1: TNFR1 on THP-1 Lucia NF-κB cells (UniProt P19438 30-455, limits assumed)
T1 sequence (looked up): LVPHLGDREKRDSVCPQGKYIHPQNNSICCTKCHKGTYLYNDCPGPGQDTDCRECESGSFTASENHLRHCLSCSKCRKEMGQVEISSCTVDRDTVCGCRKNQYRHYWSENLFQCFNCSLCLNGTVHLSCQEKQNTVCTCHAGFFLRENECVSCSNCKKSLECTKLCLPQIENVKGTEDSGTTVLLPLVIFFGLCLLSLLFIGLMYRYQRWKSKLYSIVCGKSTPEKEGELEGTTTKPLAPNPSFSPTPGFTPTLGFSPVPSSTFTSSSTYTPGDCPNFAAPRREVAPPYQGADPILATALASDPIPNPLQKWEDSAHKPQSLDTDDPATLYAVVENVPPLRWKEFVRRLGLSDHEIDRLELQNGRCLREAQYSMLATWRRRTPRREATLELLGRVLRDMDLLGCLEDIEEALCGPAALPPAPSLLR

T2: TNFR1 on THP-1 Lucia NF-kB reporter cells (UniProt P19438 30-455, limits assumed)
T2 sequence (looked up): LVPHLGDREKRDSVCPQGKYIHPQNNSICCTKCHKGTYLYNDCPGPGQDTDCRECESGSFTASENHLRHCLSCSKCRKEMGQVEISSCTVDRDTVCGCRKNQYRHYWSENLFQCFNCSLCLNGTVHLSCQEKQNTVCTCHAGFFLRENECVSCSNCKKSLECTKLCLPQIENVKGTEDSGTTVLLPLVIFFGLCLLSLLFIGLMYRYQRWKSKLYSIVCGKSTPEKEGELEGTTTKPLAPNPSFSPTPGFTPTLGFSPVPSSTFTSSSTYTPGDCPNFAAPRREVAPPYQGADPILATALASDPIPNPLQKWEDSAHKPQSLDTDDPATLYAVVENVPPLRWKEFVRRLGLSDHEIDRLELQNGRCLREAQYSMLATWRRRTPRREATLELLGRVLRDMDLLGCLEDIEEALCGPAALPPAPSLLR


What was measured:
[1] = molecular target: T1, TNFR1 on THP-1 Lucia NF-κB cells; assay: cell-based or functional assay
[2] = molecular target: T2, TNFR1 on THP-1 Lucia NF-kB reporter …; assay: cell-based or functional assay

Row | THP-1 IC50 [1] | THP-1 IC50 [2] | Binder
1 | 2.2 nM | – | {CH2CO}-[Nle][4Pal][NMeS]W[NMeE]N[4Pal][Trp(7-Cl)][αMeS][Phe(4-COOH)][Phe3CONH2][Sar][Trp(βS-Me,7-OMe)]C-NH2 (thioether N-14) [SEQ ID NO. 270]
2 | – | 2 nM | cyclo([bhcLeu][Nle][4Pal][Pip2c]W[NMeE]N[TZAla][Trp(7-Cl)][αMeS][Phe(4-COOH)]Y[Sar][Trp(βS-Me,7-OMe)]) (reading uncertain; also: printed as cyclo(bhcLeu-Nle-4Pal-Pip2c-W-NMeE-N-TZAla-Trp7Cl-aMeS-Phe4COOH-Y-Sar-SbMeW7OMe)) [SEQ ID NO. 138]
3 | – | 2.1 nM | cyclo([bhcLeu][Nle][4Pal][Pip2c]W[NMeE]N[Phe4COOMe][Trp(7-Cl)][αMeS][Phe(4-COOH)]Y[Sar][Trp(βS-Me,7-OMe)]) (reading uncertain; also: printed as cyclo(bhcLeu-Nle-4Pal-Pip2c-W-NMeE-N-Phe4COOMe-Trp7Cl-aMeS-Phe4COOH-Y-Sar-SbMeW7OMe)) [SEQ ID NO. 117]
4 | – | 0.8 nM | cyclo([bhcLeu][Nle][4Pal][Pipt5OH]W[NMeE]N[4Pal][Trp(7-Cl)][αMeS][Phe(4-CONH2)][TyrOcm][Sar][Trp(βS-Me,7-OMe)]) (reading uncertain; also: printed as cyclo(bhcLeu-Nle-4Pal-Pipt5OH-W-NMeE-N-4Pal-Trp7Cl-aMeS-Phe4CONH2-TyrOcm-Sar-SbMeW7OMe)) [SEQ ID NO. 126]
5 | 8.1 nM | – | {CH2CO}-[Nle]H[Pip2c][Trp(7-aza)][NMeE]N[4Pal][Trp(7-Cl)][αMeS][Phe(4-COOH)]Y[Sar][Trp(βS-Me,7-OMe)]C-NH2 (thioether N-14; reading uncertain; also: printed as cyclo(ClAc-Nle-H-Pip2c-Trp7az-NMeE-N-4Pal-Trp7Cl-aMeS-Phe4COOH-Y-Sar-SbMeW7OMe-C)-NH2) [SEQ ID NO. 264]
6 | 3.2 nM | – | SBrPh-[Nle][4Pal]S[Trp(7-aza)][NMeE]N[4Pal][Trp(7-Cl)][αMeS][Phe(4-COOH)]Y[Sar][αMeW]C-NH2 (thioether N-14; reading uncertain; also: printed as cyclo(SBrPh-Nle-4Pal-S-Trp7az-NMeE-N-4Pal-Trp7Cl-aMeS-Phe4COOH-Y-Sar-aMeW-C)-NH2) [SEQ ID NO. 274]
7 | – | 1 nM | cyclo([bhcLeu][Nle][4Pal][Pip2c]W[NMeE]N[4Pal][Trp(7-Cl)][αMeS][Phe(4-COOH)][Phe(2-F,4-COOH)][Sar][Trp(βS-Me,7-OMe)]) (reading uncertain; also: printed as cyclo(bhcLeu-Nle-4Pal-Pip2c-W-NMeE-N-4Pal-Trp7Cl-aMeS-Phe4COOH-Phe2F4COOH-Sar-SbMeW7OMe)) [SEQ ID NO. 107]
8 | – | 1.4 nM | cyclo([bhcLeu][Nle][4Pal][Pipt5OH][Trp(7-aza)][dNMeE]N[F4SO2NH2][Trp(7-CN)][αMeS][Phe(4-CONH2)][Phe(4-COOH)][Sar][Trp(βS-Me,7-OMe)]) (reading uncertain) [SEQ ID NO. 133]
9 | – | 1.3 nM | cyclo([bhcLeu][hL][4Pal][Pip2c]W[NMeE]N[4Pal][Trp(7-Cl)][αMeS][Phe(4-COOH)]Y[Sar][Trp(βS-Me,7-OMe)]) (reading uncertain; also: printed as cyclo(bhcLeu-hL-4Pal-Pip2c-W-NMeE-N-4Pal-Trp7Cl-aMeS-Phe4COOH-Y-Sar-SbMeW7OMe)) [SEQ ID NO. 137]
10 | – | 1.2 nM | cyclo([bhcLeu][Nle][4Pal][Pip2c]W[NMeE]N[Phe(2-F,4-COOH)][Trp(7-Cl)][αMeS][Phe(4-COOH)]Y[Sar][Trp(βS-Me,7-OMe)]) (reading uncertain; also: printed as cyclo(bhcLeu-Nle-4Pal-Pip2c-W-NMeE-N-Phe2F4COOH-Trp7Cl-aMeS-Phe4COOH-Y-Sar-SbMeW7OMe)) [SEQ ID NO. 108]
11 | – | 1.6 nM | cyclo([bhcLeu][Nle][4Pal][Pip2c]W[NMeE]N[4Pal][Trp(7-Cl)][αMeS][F4MCO2H]Y[Sar][Trp(βS-Me,7-OMe)]) (reading uncertain; also: printed as cyclo(bhcLeu-Nle-4Pal-Pip2c-W-NMeE-N-4Pal-Trp7Cl-aMeS-F4MCO2H-Y-Sar-SbMeW7OMe)) [SEQ ID NO. 111]
12 | – | 4.1 nM | {CH2CO}-[Nle][4Pal][Prot4NH2][Trp(7-aza)][NMeE]N[4Pal][Trp(7-Cl)][αMeS][Phe(4-COOH)]Y[Sar][Trp(βS-Me,7-OMe)]C-NH2 (thioether N-14) [SEQ ID NO. 125]
13 | 4.1 nM | – | XXXXENXXXXYGXC (not fully specified; cyclo(2SBrPr-Nle-4Pal-Bav-Trp7az-NMeE-N-4Pal-Trp7Cl-aMeS-Phe4CONH2-Y-Sar-SbMeW7OMe-C)-NH2) [SEQ ID NO. 273]
14 | – | 1.4 nM | cyclo([bhcLeu][Nle][4Pal][Pipc5CO2H]W[NMeE]N[4Pal][Trp(7-Cl)][αMeS][Phe(4-COOH)]Y[Sar][Trp(βS-Me,7-OMe)]) [SEQ ID NO. 120]
15 | 1.4 nM | – | {CH2CO}-[Nle][4Pal][Pip(4-aza)]W[dPro(trans-4-F)]N[4Pal][Trp(7-Cl)][αMeS][Phe(4-COOH)]Y[Sar][Trp(βS-Me,7-OMe)]C-NH2 (thioether N-14; SMILES CCCC[C@@H]1NC(=O)CSC[C@@H](C(N)=O)NC(=O)[C@H]([C@@H](C)c2c[nH]c3c(OC)cccc23)NC(=O)CN(C)C(=O)[C@H](Cc2ccc(O)cc2)NC(=O)[C@H](Cc2ccc(C(=O)O)cc2)NC(=O)[C@](C)(CO)NC(=O)[C@H](Cc2c[nH]c3c(Cl)cccc23)NC(=O)[C@H](Cc2ccncc2)NC(=O)[C@H](CC(N)=O)NC(=O)[C@H]2C[C@H](F)CN2C(=O)[C@H](Cc2c[nH]c3ccccc23)NC(=O)[C@@H]2CNCCN2C(=O)[C@H](Cc2ccncc2)NC1=O) [SEQ ID NO. 279]
16 | 3 nM | – | {CH2CO}-[Nle][4Pal][Dab][Trp(7-aza)][NMeE]N[4Pal][Trp(7-Cl)][αMeS][Phe(4-COOH)]Y[Sar][αMeW]C-NH2 (thioether N-14; SMILES CCCC[C@@H]1NC(=O)CSC[C@@H](C(N)=O)NC(=O)[C@](C)(Cc2c[nH]c3ccccc23)NC(=O)CN(C)C(=O)[C@H](Cc2ccc(O)cc2)NC(=O)[C@H](Cc2ccc(C(=O)O)cc2)NC(=O)[C@](C)(CO)NC(=O)[C@H](Cc2c[nH]c3c(Cl)cccc23)NC(=O)[C@H](Cc2ccncc2)NC(=O)[C@H](CC(N)=O)NC(=O)[C@H](CCC(=O)O)N(C)C(=O)[C@H](Cc2c[nH]c3ncccc23)NC(=O)[C@H](CCN)NC(=O)[C@H](Cc2ccncc2)NC1=O) [SEQ ID NO. 277]
